# Test results reported in the supplement of paper PMC9170038.
# Test system: MS2 coat protein
# Experiment: apparent KD of MS2 coat protein; designed switch direction (-1 OFF switch, 1 ON switch): 1; higher = weaker reporter binding
# Method in brief: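 Designed RNA switches with common flanks were transcribed on Illumina chips by stalled E. coli RNA polymerase and titrated with SNAP-549-labelled MS2 coat protein, from 0.7 or 1.5 nM doubling to 3 µM, in Tris-HCl pH 7.5 buffer with KCl, MgCl2, BSA, DTT, tRNA and Tween-20. Steps lasted 0.8–1.5 h (lowest) to 10–20 min (highest). Titrations ran without input, with 200 uM small-molecule ligand, or with an oligonucleotide input. Normalised cluster fluorescence was curve-fitted, and apparent KD is the per-design median over clusters.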
# [1] = input ligand: microRNA oligo, concentration not stated
# [2] = Eterna round: R95, input ligand: FMN 200 uM
# [3] = Eterna round: R95, input ligand: microRNA oligo, concentration not stated
# [4] = Eterna round: R95, input ligand: none
Sequence,apparent KD of MS2 coat protein (input ligand: FMN 200 uM) [nM],apparent KD of MS2 coat protein [1] [nM],apparent KD of MS2 coat protein (input ligand: none) [nM],apparent KD of MS2 coat protein [2] [nM],apparent KD of MS2 coat protein [3] [nM],apparent KD of MS2 coat protein [4] [nM]
"UUGAAUAAUUAAGGAUAUCGAGUCAAGAUGUUAAACAUGAGGAUCACCCAUGUGGGUUGCGGUAUCGAGAAGGUAAAUAAUAAG [Mat - Same State NG 2 - JL mod - D56] (Eterna round: R96, puzzle: Same State NG 2)",38.6,28.8,36.5,,,
"GUAGCAUACCGAGGAUAUUCAUAUUAUACAUGAGGAUCACCCAUGUAAGGUCGAUUACGACCUUGGGAGAAGGCGGAAUGCUAC [Xeonanis - 20 Mod34] (Eterna round: R96, puzzle: Same State NG 2)",20.3,71.9,108,,,
"ACAUGAGACGGAGGAUAUUUUGUACCUACAUGUGACAUGAGGAUCACCCAUGUGGUAAGUAUGAGAAAGAAGGCCGAGAUAUGU [Equivalence 19 - Jieux - Same State NG 2] (Eterna round: R96, puzzle: Same State NG 2)",14.2,17.7,29.6,,,
"UAUGAAUUGCAAGGAUAUUGAUAACAUGAGGAUCACCCAUGUAAUUGAUCGAGUUAGAUCAGUUACAAGAAGGUGCUAUUGUUU [JR_SSNG2_Sub037] (Eterna round: R96, puzzle: Same State NG 2)",1810,33.2,70,,,
AUAUAACAUGAGGAUCACCCAUGUCUCUAAAGUUGAGGAUAUGGGCAGGUUAUAUCCGAACCAGAAGGCGAAUUAU [SS1 Teenbexe 7] (puzzle: Same State 1),,,,74.5,46.3,102
"AUUAUGAAUGCAGGAUAUGAUUAACAUGAGGAUCACCCAUGUGGUGUUGUGAGUAAGGAGAGUGAUCAGAAGGGCAUUUUUUUU [JMF's solution 25] (Eterna round: R96, puzzle: Same State NG 2)",,465,,,,
"AGCCGAGACUGAGGAUAUUUGAAUCUACAUGAGGAUCACCCAUGUAGCAACACGUGGUAGUGAUCGAAGAAGGCAGCUCGGCGC [MOD of Omei's SS(NG)2 Cv2] (Eterna round: R96, puzzle: Same State NG 2)",22.6,45.7,57,,,
GGUCCAGCCUGAGCUGGACAAAAGCAUGUACAUGAGGAUCACCCAUGUCAUGUACAGGCUUUUUGCUCGUCUUAAAA [JL mod - D87 - 7] (puzzle: Sensor for hsa-mir-208a),,,,622,16.1,825
"GUGGUCAGACAUGAGGAUCACCCAUGUGGAAUAAAUAAGGCAUAGGAUAUAAAAUAUAGGAUAUAUUAGAAGGAUGGGUUGGUG (Eterna round: R96, puzzle: Same State NG 3)",145,83.7,144,,,
GGUCCAGCCUGAGCUGGACAAAAGCAUGUACAUGAGGAUCACCCAUGUUCAUGUACAAGCUUUUUGCUCGUCUUAGU [salish99_208a_r3_069] (puzzle: Sensor for hsa-mir-208a),,,,536,16.3,730
"AUUAGUUAUGCAGGAUAUGAUUAACAUGAGGAUCACCCAUGUGGUGUUGUGAGUAAGGAGAGUGAUCAGAAGGGCAUUUUUUUU [JMF's solution 67] (Eterna round: R96, puzzle: Same State NG 2)",462,264,644,,,
AAGAGACAUGAGGAUCACCCAUGUUUGAAUAAUAUAGGAUAUAUACCACAUGUAAAAGAAAUAGAAGGAUAAGAAA [Default title] (puzzle: Same State 1),,,,77,114,534
GAAAAGGCGACGCAGGAUAUGAAAGGUGAAACAUGAGGAUCACCCAUGUGCUACCUUCCGAUAAAUCAGAAGGGCGACGCCAAGC [Soleusat] (puzzle: Same State 2),,,,9.79,8.54,9.6
"CUGAGCAAUCAAGGAUAUCACGUCGAUUAGACGUGAGAAGGUGAUCAUAACAUGAGGAUCACCCAUGUAUUACAUGGAGCUCAG [Brourd's SSNG1/1-A2 mod 1] (Eterna round: R96, puzzle: Same State NG 1)",533,124,397,,,
"UUCACCUUAUUUUACAUGAGGAUCACCCAUGUUUUUUUUACGUAGGAUAUCGAUGCUUGAUUGUUCGAGAAGGACGAUGUAAGU [JR_SSND3_Sub054] (Eterna round: R96, puzzle: Same State NG 3)",27.3,24.3,31.1,,,
"CAGCGCUGUCGAGAGGAUAUGCGGUGAUGGACAUGAGGAUCACCCAUGUAAGCGAUAGCAUUACGGCAGAAGGCUCUGCAGCUGC [Riaranzaes] (Eterna round: R96, puzzle: Same State 2)",,17.2,,,,

Sequence,apparent KD of MS2 coat protein (input ligand: FMN 200 uM) [nM],apparent KD of MS2 coat protein [1] [nM],apparent KD of MS2 coat protein (input ligand: none) [nM],apparent KD of MS2 coat protein [2] [nM],apparent KD of MS2 coat protein [3] [nM],apparent KD of MS2 coat protein [4] [nM]
UAGUACAUGCUUUUUGUCUGUCUUAGAUCACAUGAGGAUCACCCAUGUUUGGUGAAAGUUAUAUAGUUUAUGACUAU [JR_SHM208A_Sub059] (puzzle: Sensor for hsa-mir-208a),,,,114,96.8,162
"AAAAUAUAAAGAGAGGAUAUCCAAAGAACCACAUGAGGAUCACCCAUGUAAAGAAAGAAUAAGUGGGAGAAGGCUCAAAUAAUAA [Designing denovo 24] (Eterna round: R96, puzzle: Same State 2)",24.8,82.8,114,,,
"GAAGCGGCAGAAUAAAACAUGAGGAUCACCCAUGUCGCGGUUUAGGAUAUGGGACGGGUAUGAACCCAGAAGGAGACCGCAGGC [Eternabot solution 2] (Eterna round: R96, puzzle: Same State NG 3)",32.7,33.8,56.2,,,
"CCGGUUUAUGGAGGAUAUGGAGCCUUAUUGGCUCCAGAAGGUCAAUAACAUGAGGAUCACCCAUGUCCGGCGGUCAAUAGACCG [Eli NG1ss - 69] (Eterna round: R96, puzzle: Same State NG 1)",120,146,349,,,
"UUGAAGAAUUAAGGAUAUUGAUUACAUAUGUUUAACAUGAGGAUCACCCAUGUGGGUUGCGGUAUCGAGAAGGUAAAUUACUAG [JL SSNG2 1.47] (Eterna round: R96, puzzle: Same State NG 2)",137,122,162,,,
GGCUAUCGCGUACGAUAGCUUAAGCGUGUACAUGAGGAUCACCCAUGUCAUGUACAAGCUUUUUGCUCGUCUUAUUG [JL-shm-2.34 JL mod] (puzzle: Sensor for hsa-mir-208a),,,,195,19.4,493
"AGAUCAUGACGAGGAUAUGGUACAUGAGGAUCACCCAUGUAUGUACCAUAAUUAGUAUUAGGAAACCAGAAGGCGUCGUGGUCA [JL SSNG2 1.18] (Eterna round: R96, puzzle: Same State NG 2)",10.1,55.7,85.4,,,
"ACGCCUAAACGGCGAAAACGACAUGAGGAUCACCCAUGUACACAGGAUAUCAGCCUGCAACAGGCUGAGAAGGGUGAACCUAAA [Atatmadiar] (Eterna round: R96, puzzle: Same State NG 3)",711,35.5,155,,,
"GUUACAUGAGGAUCACCCAUGUAUGUGUGGGAGUAAGUGUCUUAGGAUAUCUAGUAUUUAAGUUAAGAGAAGGAAGAUUGUUGU [JMF's solution 62] (Eterna round: R96, puzzle: Same State NG 3)",129,78,114,,,
"UGUUGUAUUACAGGAUAUCUAUUAUGUUUAUUUAGAGAAGGGUAUUCACAUGAGGAUCACCCAUGUAUAUACGAGGAAGUUGUG [JMF's solution 16] (Eterna round: R96, puzzle: Same State NG 1)",,37.5,,,,
"GCUCGAUGUGCUGUCUACAUGAGGAUCACCCAUGUAGAUGCGGAGGAUAUCUACGUGCUUUAUGUAGAGAAGGUCGUAUCGAGC [SameState NG3 #84] (Eterna round: R96, puzzle: Same State NG 3)",52.5,50.2,90.4,,,
AUAAAACAUGAGGAUCACCCAUGUCAACAAAGUCGAGGAUAUGGGCAAAUAAAAUAAGAACCAGAAGGCUAAUAAU [salish99_ss1_r3_052] (puzzle: Same State 1),,,,246,378,375
GGAGGACAUGAGGAUCACCCAUGUAGAUGGGCGCUAGGAUAUGCGAGAGGGUAGAGAGAAGCAGAAGGAGUGGAAA [JR_SS1_Sub040] (puzzle: Same State 1),,,,149,197,382
"UAGUGCAUUAGAGGAUAUUCUUACGGAAACGGUAAGACAUGAGGAUCACCCAUGUUGUCACAUGGGAAGAAGGCUGAUGUGCUA [Omei SS(NG)2 Bv5] (Eterna round: R96, puzzle: Same State NG 2)",82.6,104,510,,,
"UCUAUUGUGGUAGGAUAUCUAGGAUAUGGGAAGAGCUAAGCUUGGAAGUCACUUCACCCAGAAGGAGAGAAGGACCAGAGACUU [pwkr ssNG2 2FMN + F9.7] (Eterna round: R96, puzzle: Same State NG 2)",1230,778,475,,,
